Experimental findings from publication PMC4282423 are described below.

For this series, the target named is T1, BldD (His-tagged) (Streptomyces coelicolor) (UniProt Q7AKQ8).
T1 sequence: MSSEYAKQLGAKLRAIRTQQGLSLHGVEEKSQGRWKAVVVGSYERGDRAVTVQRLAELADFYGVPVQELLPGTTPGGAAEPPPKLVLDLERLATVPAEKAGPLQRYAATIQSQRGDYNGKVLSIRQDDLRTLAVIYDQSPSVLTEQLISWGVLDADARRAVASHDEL
Briefly: DNase I footprinting. To be noted: EMSA and extract footprinting: 25 mM HEPES pH 7.5, 4 mM DTT, 1 mM ATP, 10 mM Mg-acetate, 4% glycerol, 1 ug poly(dI-dC), 30 C, 20 min; purified BldD …. (In general: In EMSA bound probe runs differently from free probe, usually more slowly.)

On to “GTGCAGGCCGTCAGCAGCAGGGCGGAGGCGCCCAGGGCACCGACCACGGCCAGCGAACGCAAGGGGGGAAGTCGTCGTGCAGAGCTCATGATGCTGTCCGTAACCGCTCCGTCACGCAGACACACCGGACCGGTATGAAAATCACCCTATTGGCCGGGGTGGGGCGACGTCCCGTGGGCGGCGGGACCGGGAGCCTTCAG (double strand) [sspA promoter footprint probe (7434_F1/7434_R1)]”, for which the binding entry was “binds”.
